# Results reported in the nanobody polyreactivity screen of Harvey et al. (2022).
# Assay: yeast display, Sf9 membrane polyspecificity reagent, FACS + sequencing; frameworks hold sequencing errors
# Summary of the method: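 After 36–48 hours of galactose induction, yeast (Saccharomyces cerevisiae BJ5465) displaying a synthetic nanobody library were stained at 4 °C for 1 hour with 10% biotinylated, detergent-solubilized Sf9 membrane reagent. Streptavidin microbeads enriched the stained cells before FACS sorting into low and high (top ~1%) gates on anti-HA and streptavidin fluorescence. Each clone's polyreactivity label reflects its gate of origin.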
row,Sequence,polyreactivity (PSR sort gate)
1,QVQLVESGGGLVQAGGSLRLSCAASASNYERYVMGWNRQAPGKERELVAAISRSGGTTYYADSVKGRFTISRDNAKNTVYLQMNSLKPEDTAVYYCAARVPHDSAGYDYWGQATQVTVSS,high polyreactivity
2,QVQLVESGGGLVQAGGSLRLSCAASGRTFTTYAMGWYRQAPGKERELVAAISGSGGSTYYADSVKGRFTISRDNAKNTVYLQMNSLKPEDTAVYYCATAYYYHGGYYYPYDDYWGQGTQVTVSS,low polyreactivity
3,QVQLLESGGGLVQAGGSLRLTCAASGSTFPDYAMGWYRQAPGKEREFVASITWSDGSTYYADSVKGRFTISRDNAKNSVYLQMNRLKQEDTAVYYCNADYVYYYIPVVYEYDYWGQGTQVTVSS,high polyreactivity
4,QVQLVESGGGLVQAGGSLRLSCAASGSTFALYAMGGSRPAPGKERELVAVINSGGSTYYADSVKGRFTISRDNAKNTVYLLMNSLKPEDTAVSYCATVYVWAYRGTDSSYRFDYWGKGTQVTVSS,low polyreactivity
5,QVQLVESGGGKVQAGGSLRLSCAASGRILHEYAMGWYRQAPGKERELVAAITFSGTSTYYADSVKGRFTISRDNAKNTVYLQMYSLKPEDTAVYYCAADTYGGSRDYWGQGTQVTVSS,low polyreactivity
6,QVQLVESGGGLVQAGGSLRVSCAASGFIFCGYARGWYRQAPGKERELDAAISSSGGSTYYADSVKGRFTISRDNAKNTDYLQMNSLKPEDTAVYYCAKVGRSRRYYYWGQGTQVTVSS,high polyreactivity
7,QVQLVESGGGLVQAGGSLRLSCAASGSIFASNAMGWYRQAPGKERELVAAINSGDSTNYADSVKGRFTISRDNAKNTVYLQMNSLKPEDTAVYFCARGLEERYDYWGQGTQVTVSS,low polyreactivity
8,QVQLVESGGGLVQAGGSLRLSCAASGYIFDGNAMGWYRQAPGKERELVAPITWTGGSTYYADSVKGRFTISRDNAKNTVYLQMNSLKPEDTAVYYCAKPYDPGPYHSSYRATDDYWGQGTQVTVSS,low polyreactivity
9,QVQLVESGGGLVQAGGSLRLSCAASGRTFSVNAMGWYRPAPGKERELVAAISSGGGTNYADSVKGRFTISRDNAKNTVYLQMNSLKPEDTAVYYCAARTFGYPSHRQEMEYWGQGTQVTVSS,low polyreactivity
10,QVQLVESGGGLVQAGGSLRLSCAASGFIFLGNAMGWYRQAPGKERELVAAISSGGSTYADSVKGRFTISRDNAKNTVYLQMNSLKPEDTAVNYCAVDRAFRAQNYHEYDYWGQGTQVTVSS,low polyreactivity
11,QVQLVESGGGLVQAGGSLRLSCAASGFISGFYGMGWYIQAPGKEREFVAAIDFIDGDTYYADSVKGRFTISRDKAKNTVYLQMNSLKPEDTAVYYCAADGSFCQFDYWGQGTQVTVSS,low polyreactivity
12,QVQLVESGGGLVQAGGSLRLSCAASGFIFEYNAMGWYRQAPGKERELVAAITSSGGSTYYADSVKGRFTISRDNAKNTVYLKMYSLKPEDTAVYYCARVRRSAYYKDYYYWGQGTQVTVSS,high polyreactivity
13,QVQLVESGGGLVQAGGSLRLSCAASGITFPGYAMGSYRQAPGKERELVAVIRKSGTSTYYADSVKGRFTISRDNAKNTVYLQMNSLKPEDTAVYYCAAGGPSTLDDYWGQGTQVTVSS,low polyreactivity
14,QVQLVESGGGLVQAGGSLRLSCAASGFTFRYNAMGWYRQAPGKERELVAGISWTSGSTYYADSVKGRFTISRDNAKNTVYLQMNSLKPEDTAVYYCAAYYRRDAALYGYWGQGTQVTVSS,high polyreactivity
15,QVQLVESGGGLVQAGGSLRLSCAASGITFWYYAMGWYRQAPGKERELVAVISRGGSTYYADSVKGRFTISRDNAKNTVYLQLNSLKPEDTAVYYCAARPRWYTYTRQEYDYWGQGTQVTVSS,high polyreactivity
16,QVQLVESGGGIVQAGGSLRLSCAASGIIFWNYTMGWYRQAPGKERELVAAISVSGGSTYYADSVKGRFTISRDNAKNTVYLQMNSLKPEDTAVYYCAAEWIYPSPHYEYDYWGQGTQVTVSS,high polyreactivity

row,Sequence,polyreactivity (PSR sort gate)
1,QVQLQESGGGLVQAGGSQRLSCAASGSISILQSRGCYRQAPGKERELVAGINWGATTYYADSVKGRLTTSRDYAKNTVYLQMNSLKPEDTAVYYCAVPTYYTYPLLYWGQGTQVTVSS,low polyreactivity
2,QVQLVESGGGLGQAGGSLRLSCAASGSIFAGNAMGWYRQAPRKERELVAAISRRGGSTYYADSVKGRFTISRDNAKNTVYLQMNSLKPEDTAVYYCNALLRYAYHAAYGYWGQGTQVTVSS,high polyreactivity
3,QVQLVQSGGGLVQAGGSLRLSCAASGSTFPTNAMGSYRQAPGKERELVAAISSSGGRTYYADSVKGRFTISRDNAKKTDYLQRNSLKPEDTAVYYCAAVWWRAYAVRMYYWGQGTQVTVSS,high polyreactivity
4,QVQLVESGGGLVQAGGSLRLSCAASGRTYTYYAMGWYRQAPGKERELVAAISDSGGRTYYADSVKGRFTISRDNAKNTVYLQMNSLKPEDTAVYYCAATTYPYYRFDYWGQGTQVTVSS,high polyreactivity
5,QVQLVESGGGLVQAGGSLRLSCAASGIIIRNYGMGCYRQAPGKERELVARIRWTGGSTYYADSVKGRFTISRDNAKNTVYLQMNSLKPEDTAVYYCAADIWQYSRIANYHPYDYWGQGTQVTVSS,low polyreactivity
6,QVQLVESGGGLVQAGGSLRLICAASGFTFLTYAMGWYRQAPGKERELVAAIDSGDSTKYADSVKGRFTISRDNAKYTVYLQMNSLKPEDTAVYYCNASRRYHVLAPYDYWGQGTQVTVSS,low polyreactivity
7,QVQLVESGGGLVQAGASLRLSSAASGFIFRDYAMGWYRQAPGKDRELVAAISRGGGTTYYEDSVKGRFTISRENAKNTVYLQMNSLTPEDTAVYYCAAKSAFPLDYWGQGTQVTVSS,high polyreactivity
8,QVQHVESGGGLVQAGGSLRLSCSASGFTLTAYAMGWSRQPPGKEREFVAAISTSGTRTYYADSVKGRFTISRDNAKNTVYLQMNSLKQEDTAVYYCAARYSGYQYWKFNYWGQGTQVTVSS,high polyreactivity
9,QVHLVESGGGLIQAGGSLRISSAPSGSTFGTYVMGWSRQAPGKERELVAAISKRGGRTYYADSVKGRFTISRDNAKNTVYVPMTSLKAEDTAVYYCYAVYLYSGSSARYYWGQGTEVTVSS,high polyreactivity
10,QVQLVESGGGLVQAGGSLRLRSAASGIILGKYAMGWYRQAPGKERELVAAISGRGGRTYYADSVKGRFTISRDNAKNTVYLQMNSLKQEDTAVYYWWGQGTQVTVSS,low polyreactivity
11,QVQLVESGGGLVQAGGSLRLSCAASGRIFGLYAMGWYRQAPGKEREFVAAIRLSGGSTYYADSVKGRFTISRDNAKNTVYLQMISLKPEDTAVYYCAADLSYNRGRGSRVYYWGQGTQVTVSS,high polyreactivity
12,QVQLVESGGGLVQAGGSLRLSCAASGITFVFYAMGWYRQAPGKEREFVAGITWRGGRTYYADSVKGRFTISRDNAKNTVYLQMNSLKPEDTAVYYCNARSVVLTGGDYWGQGTQVTVSS,high polyreactivity
13,QVQLVESGGGLVQEGGSLRLSCAASGSIFRYYAMGWYRQAPGKERELVAVITRGGSTYYADSVKGRFTISRDNAKNTVYLQMNSLKPEDTAVYYCAAEDYVIGDSGYDYWGQGTQVTVSS,low polyreactivity
14,PVQLVESGGGLVQAGGSLRLSCAASGFTFDENAMGWYRQAPGITYSGASTYYADSVKGPYTISRANAQNTVYLQMNSLKPEDTAVYYCAAEVVAQMNYWGQGTQVTVSS,low polyreactivity
15,QVQHVESGGGLVQAGGSLRLSCAASGSTFVQYAMGWYRQAPGKERELVAAIRGRGDSTYYADSVKGRFTISRDNAKNTVYLQMNSLKPEDTAVYYCAARGQGSRGMYYWGQGTQVTVSS,low polyreactivity
16,QVQLLESGVGLVQAGGSLRLSCAASGFTFGYYAMGWYRQAPGKETELVAAISSSDGSTYYADSVKGRFTISRDNAKNTVYLQMNSLKPEDTAVYYCAAEYYSAVYIDEYWYDYWGQGTQVTVSS,high polyreactivity
